Measurements reported in article PMC4974663, “The ATPase hCINAP regulates 18S rRNA processing and is essential for embryogenesis and tumour growth” (Nature Communications, 2016).

Target: T1, GST-RPS14 (UniProt P62263 1-151)
T1 construct: ribosomal protein RPS14; also called recombinant GST-RPS14
Test: pull-down; GST-RPS14 and His-hCINAP incubated in 1 ml NP-40 lysis buffer (50 mM Tris pH 8.0, 150 mM NaCl, 1% NP-40) for 2 h at 4 °C, then ATP or AMP-PNP at 1 mM with 5 mM MgCl2 for 1 h; GST beads 1 h; western blot
Conditions: both partners purified

- binding result: binds
B1: His-hCINAP (enzyme)
chain: MLLPNILLTGTPGVGKTTLGKELASKSGLKYINVGDLAREEQLYDGYDEEYDCPILDEDRVVDELDNQMREGGVIVDYHGCDFFPERWFHIVFVLRTDTNVLYERLETRGYNEKKLTDNIQCEIFQVLYEEATASYKEEIVHQLPSNKPEELENNVDQILKWIEQWIKDHNS
notes: also called His6-hCINAP
